In article PMC11035591, “Structural insights into the transporting and catalyzing mechanism of DltB in LTA D-alanylation” (Nature Communications, 2024):

T1: Streptococcus thermophilus DltB (Streptococcus thermophilus), Q5M4V4
T1 chain: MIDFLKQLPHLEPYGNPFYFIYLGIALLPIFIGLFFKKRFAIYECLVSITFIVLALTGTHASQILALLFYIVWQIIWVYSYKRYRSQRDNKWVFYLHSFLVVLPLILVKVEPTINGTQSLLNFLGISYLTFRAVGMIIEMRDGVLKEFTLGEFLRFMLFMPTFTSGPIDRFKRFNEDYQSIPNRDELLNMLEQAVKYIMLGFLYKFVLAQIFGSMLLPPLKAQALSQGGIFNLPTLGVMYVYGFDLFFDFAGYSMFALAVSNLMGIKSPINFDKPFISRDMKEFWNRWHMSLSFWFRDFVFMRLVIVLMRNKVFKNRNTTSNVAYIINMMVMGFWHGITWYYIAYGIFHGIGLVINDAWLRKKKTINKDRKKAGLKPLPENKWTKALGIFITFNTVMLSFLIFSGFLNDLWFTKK

T2: Streptococcus thermophilus DltB (Streptococcus thermophilus, UniProt Q5M4V4 1-415)
T2 construct: the entire chain from Met1 to Lys415 was modelled in the cryo-EM maps ('intact DltB protein'); Homo-tetramer (dimer of dimers) by SEC, cross-linking and cryo-EM; purification also gave oligomer, dimer and monomer fractions; also called WT DltB; DltB tetramer; source: E. coli C41(DE3); purified (Triton X-100 solubilisation, Ni-NTA, Superdex 200 in 0.03% β-DDM); also unpurified in whole cells, on …
T2 sequence (looked up): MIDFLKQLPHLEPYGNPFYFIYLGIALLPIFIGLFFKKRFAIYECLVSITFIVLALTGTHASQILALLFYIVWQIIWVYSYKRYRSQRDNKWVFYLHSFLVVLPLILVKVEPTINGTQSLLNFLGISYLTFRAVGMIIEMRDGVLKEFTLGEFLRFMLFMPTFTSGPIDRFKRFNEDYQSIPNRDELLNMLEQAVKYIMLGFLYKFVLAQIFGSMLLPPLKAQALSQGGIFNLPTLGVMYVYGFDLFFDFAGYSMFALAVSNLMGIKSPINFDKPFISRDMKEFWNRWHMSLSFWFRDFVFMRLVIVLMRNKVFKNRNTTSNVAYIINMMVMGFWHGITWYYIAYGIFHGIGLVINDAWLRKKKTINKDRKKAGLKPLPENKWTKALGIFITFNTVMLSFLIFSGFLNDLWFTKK

B1: Streptococcus thermophilus DltB, Q5M4V4 1-415 (enzyme)
chain: MIDFLKQLPHLEPYGNPFYFIYLGIALLPIFIGLFFKKRFAIYECLVSITFIVLALTGTHASQILALLFYIVWQIIWVYSYKRYRSQRDNKWVFYLHSFLVVLPLILVKVEPTINGTQSLLNFLGISYLTFRAVGMIIEMRDGVLKEFTLGEFLRFMLFMPTFTSGPIDRFKRFNEDYQSIPNRDELLNMLEQAVKYIMLGFLYKFVLAQIFGSMLLPPLKAQALSQGGIFNLPTLGVMYVYGFDLFFDFAGYSMFALAVSNLMGIKSPINFDKPFISRDMKEFWNRWHMSLSFWFRDFVFMRLVIVLMRNKVFKNRNTTSNVAYIINMMVMGFWHGITWYYIAYGIFHGIGLVINDAWLRKKKTINKDRKKAGLKPLPENKWTKALGIFITFNTVMLSFLIFSGFLNDLWFTKK
B2: Streptococcus thermophilus DltC (natural protein)
chain: MDVKAEVIEIIDELFMEDVSDMMDEDLFDAGVLDSMGTVELIVELESRFDIRVPVSEFGRDDWNTANKIVEGVTELRNA
notes: DltC, D-alanyl carrier protein, Streptococcus thermophilus; Used without the 4'-phosphopantetheine (Ppant) modification on Ser35; Modified pET28a vector with a TEV cleavage site; also called DltC-ST; source: E. coli BL21(DE3), purified (Ni column, TEV cleavage, Resource Q)

Tests used:
[1] = target: T1, Streptococcus thermophilus DltB …; assay: cryo-EM structure; DltB tetramer (10 mg/mL) incubated with the inhibitor m-AMSA (1:3 ratio) for 30 min; 3.23 Å; settings: remark: other sources report otherwise
[2] = target: T1, Streptococcus thermophilus DltB …; assay: cryo-EM structure; DltB tetramer (10 mg/mL) incubated with purified DltC (1:1 ratio) for 30 min; 3.50 Å; settings: remark: other sources report otherwise
[3] = target: T1, Streptococcus thermophilus DltB …; assay: SEC; membrane with overexpressed DltB (wild type or mutant) mildly solubilised with 0.25% β-DDM, Superdex 200; fractions analysed by western blot (anti-His); settings: remark: other sources report otherwise
[4] = target: T1, Streptococcus thermophilus DltB …; assay: cryo-EM structure; apo DltB tetramer, about 10 mg/mL in β-DDM; 3.42 Å; settings: remark: other sources report otherwise
[5] = target: T2, Streptococcus thermophilus DltB; assay: cryo-EM structure; DltB tetramer (10 mg/mL) incubated with purified DltC (1:1 ratio) for 30 min; 3.50 Å; settings: both partners purified

Binder | stoichiometry N [1] | stoichiometry N [2] | stoichiometry N [3] | stoichiometry N [4] | binding result [5]
B1 | 4 | 4 | 4 | 4 | –
B2 | – | – | – | – | binds
